Legend:
PANC1 cells = experiment: Immunoblot of rCHI3L1-induced AKT and ERK phosphorylation, PANC1; assay type: cell-based, human; settings: PANC1, rCHI3L1 100 ng/ml, 20 minutes, different dose of mAbs
Method: The involvement of CHI3L1 in intracellular signaling pathways has been reported. For example, CHI3L1 binding to CD44 activates protein kinase B (AKT) and extracellular signal-regulated kinase (ERK) signaling to promote cancer progression (Chen, Jiang et al. 2021). Thus, we tested whether mAb clones R4-4, R4-54, 293R3-2, and 293R3-4 could attenuate AKT and ERK phosphorylation in human pancreatic (PANC1), colorectal (HCT116), and lung (A549) cancer cell lines. PANC1 cells were treated with rCHI3L1 (100 ng/ml) only or rCHI3L1 with different dose of mAbs as indicated for 20 minutes.

[1] = target: human chitotriosidase-1 (CHIT1) (Homo sapiens, UniProt Q13231); experiment: ELISA binding specificity, CHIT1; settings: mAbs 1 μg/ml; coated protein 2.5 μg/ml to 0 μg/ml
Sequence of human chitotriosidase-1 (CHIT1) (Q13231 22-466): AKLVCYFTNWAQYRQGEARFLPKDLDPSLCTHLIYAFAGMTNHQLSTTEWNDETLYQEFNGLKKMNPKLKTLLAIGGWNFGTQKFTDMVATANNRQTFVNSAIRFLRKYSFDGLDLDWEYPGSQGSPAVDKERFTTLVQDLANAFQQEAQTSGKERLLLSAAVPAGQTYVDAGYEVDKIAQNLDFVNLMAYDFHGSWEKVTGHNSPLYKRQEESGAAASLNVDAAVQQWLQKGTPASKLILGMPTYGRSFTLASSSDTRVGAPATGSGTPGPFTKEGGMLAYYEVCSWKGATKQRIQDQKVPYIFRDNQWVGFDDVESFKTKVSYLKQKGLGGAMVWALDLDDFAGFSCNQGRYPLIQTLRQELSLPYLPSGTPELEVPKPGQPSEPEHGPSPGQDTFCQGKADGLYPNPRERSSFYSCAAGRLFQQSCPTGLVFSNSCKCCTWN
Method: Four selected clones of mAbs including R4-4, R4-54, 293R3-2, and 293R3-4 were further tested for blocking effect on human colorectal (HCT116, SW480, and SW620) and pancreatic cancer cell lines (PANC1 and MiaPaCa-2). […] P values were determined by one-way ANOVA. * P<0.05, ** P<0.01, *** P<0.001, **** P<0.0001. For binding specificity examination, we further coated different concentration of recombinant CHI3L1 protein, and two other major proteins in chitinase family including human chitotriosidase-1 (CHIT1) and CHI3L2 from 2.5 μg/ml to 0 μg/ml, on 96-well plate.

hCHI3L1/flag-His [2] = target: T1, hCHI3L1/flag-His (Homo sapiens, UniProt P36222); experiment: ForteBio biolayer interferometry binding analysis; settings: mAb loaded on AHC sensor, analyte hCHI3L1
T1 construct: human CHI3L1 extracellular domain fused with flag and His tag
T1 sequence (P36222 22-383): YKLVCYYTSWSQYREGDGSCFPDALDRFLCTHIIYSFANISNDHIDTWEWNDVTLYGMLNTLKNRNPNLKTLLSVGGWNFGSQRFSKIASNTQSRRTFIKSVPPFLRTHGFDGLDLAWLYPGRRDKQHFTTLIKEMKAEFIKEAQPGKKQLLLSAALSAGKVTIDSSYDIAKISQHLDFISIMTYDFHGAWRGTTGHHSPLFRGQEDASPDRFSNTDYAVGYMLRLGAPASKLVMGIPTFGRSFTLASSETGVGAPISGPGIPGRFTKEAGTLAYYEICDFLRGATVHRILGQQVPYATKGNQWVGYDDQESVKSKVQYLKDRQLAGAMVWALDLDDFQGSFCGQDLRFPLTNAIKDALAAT
Method: Anti-CHI3L1 mAbs were loaded at 5 μg/mL on AHC (Anti-Human IgG Fc Capture, ForteBio, Cat #18-5060) for signal reach to approximate 0.5 nm. Sensors then were exposed to human CHI3L1 extracellular domain fused with flag and His tag recombinant protein, hCHI3L1/flag-His, solutions at 10 nM with 2 time serial dilution for 7 concentrations. Measurement were performed as follows: 1 min baseline in kinetic buffer, 5 minute association in 7 different concentrations hCHI3L1/flag-His and 5 minute dissociation into kinetic buffer. The kinetic parameters were calculated and produced by Octet Data Acquisition and Analysis Software.

hCHI3L1/flag-His [3] = target: T1, hCHI3L1/flag-His; experiment: In tandem epitope binning on Octet Red96; assay type: binding
Method: In order to know the epitopic coverage for those four antibodies to increase the success of therapeutic CHI3L1 antibody development, epitope binning is used to characterize the binding site of mAbs to the corresponding antigen and summarized in the Table 4. In epitope binning, mAbs specific to the same target protein are tested pairwise against all mAbs in a set to assess whether they block one another's binding to a specific site of the antigen or not. The mAbs that block binding to the same epitope are “binned” together. mAbs within the same bin often function similarly, so epitope bins can narrow down the choices to fewer candidates for investigators to choose from. The in tandem epitope binning assay conducted on Octet Red96 comprised a five-step binding cycle; 1) a buffer baseline was established for 30 sec, 2) 100 nM hCHI3L1/flag-His was captured for 5 min, 3) 100 nM mAb array was loaded to saturate the captured antigen for 10 min, 4) 100 nM of the test mAb was bound for 5 min, and 5) the capture surfaces were regenerated for 30 sec. Anti-His surfaces were regenerated with 10 mM glycine pH 1.7. Raw data was processed using ForteBio's Data Analysis HT Software 11.1 and the antibody pairs were assessed for competitive binding. Additional binding by the second antibody indicates an unoccupied epitope (non-competitor, marked as *c in Table 4), while no binding indicates epitope blocking (competitor, marked as *b in Table 4) and self-competing antibodies were marked as *a in Table 4. Among four anti-CHI3L1 mAbs, there are two epitope clusters.

[4] = target: T2, CHI3L1 binding to IL-13Rα2 on A549 cell line (Homo sapiens, UniProt P36222); experiment: Functional screen: block of CHI3L1 binding to IL-13Rα2 on A549 cell line; assay type: cell-based; settings: A549 cells, compared with CHI3L1 only
T2 construct: host or cells: A549 cells carry the receptor
T2 sequence (P36222 22-383): as above
From the text: CHI3L1 is known to associate with different receptors, such as IL-13Rα2 (He et al. 2013), CRTH2 (Zhou et al. 2015), TMEM219 (Lee et al. 2016), and galectin-3 (Zhou et al. 2015). […] Therefore, purified antibody leads were functionally screened for their ability to block CHI3L1 binding to IL-13Rα2 on A549 cell line (FIG. 3A). […] The sequences and defied CDR regions among those monoclonal antibodies are listed and summarized in the sequences list (SEQ ID NOs: 1 to 88) and Table 2, respectively. Anti-CHI3L1 clone R4-2 heavy chain (SEQ ID NO: 1), anti-CHI3L1 clone R4-2 light chain (SEQ ID NO: 2), anti-CHI3L1 clone R4-4 heavy chain (SEQ ID NO: 9), anti-CHI3L1 clone R4-4 light chain (SEQ ID NO: 10), anti-CHI3L1 clone R4-39 heavy chain (SEQ ID NO: 17), anti-CHI3L1 clone R4-39 light chain (SEQ ID NO: 18), anti-CHI3L1 clone R4-53 heavy chain (SEQ ID NO: 25), anti-CHI3L1 clone R4-53 light chain (SEQ ID NO: 26), anti-CHI3L1 clone R4-54 heavy chain (SEQ ID NO: 33), anti-CHI3L1 clone R4-54 light chain (SEQ ID NO: 34), anti-CHI3L1 clone R4-62 heavy chain (SEQ ID NO: 41), anti-CHI3L1 clone R4-62 light chain (SEQ ID NO: 42), anti-CHI3L1 clone R4-63 heavy chain (SEQ ID NO: 49), anti-CHI3L1 clone R4-63 light chain (SEQ ID NO: 50), anti-CHI3L1 clone R4-93 heavy chain (SEQ ID NO: 57), anti-CHI3L1 clone R4-93 light chain (SEQ ID NO: 58), anti-CHI3L1 clone 293R3-2 heavy chain (SEQ ID NO: 65), anti-CHI3L1 clone 293R3-2 light chain (SEQ ID NO: 66), anti-CHI3L1 clone 293R3-4 heavy chain (SEQ ID NO: 73), anti-CHI3L1 clone 293R3-4 light chain (SEQ ID NO: 74), anti-CHI3L1 clone 293R3-5 heavy chain (SEQ ID NO: 81), and anti-CHI3L1 clone 293R3-5 light chain (SEQ ID NO: 82) are shown in sequence listing.

binding specificity: recognition of CHIT1 [1]: no other chitinase proteins | koff (hCHI3L1/flag-His [2]): 0.0065 s⁻¹ | kon (hCHI3L1/flag-His [2]): 1.54e+06 M⁻¹ s⁻¹ | epitope cluster (hCHI3L1/flag-His [3]; among four anti-CHI3L1 mAbs): unidirectional blocking results | competitive binding class, CHI3L1 293R3-2 (hCHI3L1/flag-His [3]; paired with CHI3L1 293R3-2): *^b | Epitope Binning Heat Map value, CHI3L1 293R3-2 (hCHI3L1/flag-His [3]; paired with CHI3L1 293R3-2, 100 nM each): 0.1002 | competitive binding class, CHI3L1 293R3-4 (hCHI3L1/flag-His [3]; paired with CHI3L1 293R3-4): *^b | Epitope Binning Heat Map value, CHI3L1 293R3-4 (hCHI3L1/flag-His [3]; paired with CHI3L1 293R3-4, 100 nM each): 0.1425 | competitive binding class, CHI3L1 R4-4 (hCHI3L1/flag-His [3]; paired with CHI3L1 R4-4): *^c | Epitope Binning Heat Map value, CHI3L1 R4-4 (hCHI3L1/flag-His [3]; paired with CHI3L1 R4-4, 100 nM each): 1.1166 | competitive binding class, CHI3L1 R4-54 (hCHI3L1/flag-His [3]; paired with CHI3L1 R4-54): *^a | Epitope Binning Heat Map value, CHI3L1 R4-54 (hCHI3L1/flag-His [3]; paired with CHI3L1 R4-54, 100 nM each): 0.2160 | CHI3L1 neutralizing activity [4]: best neutralizing activity
B1: R4-54: fully human anti-CHI3L1 IgG1 mAb, Table 1 No. 34; heavy chain SEQ ID NO: 33, light chain SEQ ID NO: 34 (antibody, listed as Homo sapiens)
VH: QVQLVESGGGVVQPGRSLRLSCAASGFTFSSYGMHWVRQAPGKGLEWVAVISYDGSDKDYADSVKGRFTISRDNSKNTLFLQMNSLRAEDTAVYYCARDDYDSTYYFDNWGQGTTVTVSS
light: SYELTQPPSVSVSPGQTASITCSGDILADQYASWYQQKPGQSPVLVIYHDTKRPSGVPERFSGSTSGNTATLTISGTQAMDEAAYYCQAWDINTAWVFGGGTQLTVLGQPKAAPSVTLFPPSSEELQANKATLVCLISDFYPGAVTVAWKADSSPVKAGVETTTPSKQSNNKYAASSYLSLTPEQWKSHRSYSCQVTHEGSTVEKTVAPTECS
p-AKT and p-ERK levels induced by rCHI3L1 (PANC1 cells): inhibited p-AKT and p-ERK levels induced by rCHI3L1 in a dose dependent manner
